This assay has as its target fibronectin with extra-domain B (EDB-FN) (human (endogenous in U87MG and U251MG)) (UniProt P02751). The assay is described as follows: cellular uptake of rhodamine B-labelled micelles, confocal microscopy; U87MG and U251MG cells incubated 1 h at 37 °C with 100 µg/mL micelles holding 1.0, 2.5 or 5.0 wt% APTEDB-DSPE, washed with PBS, fixed; fluorescence normalised to DAPI (ImageJ); nontargeting PEG2000-DSPE micelles as …; also after EDB-FN siRNA in U87MG (uptake decreased) and over 5 min to 4 h.
Sequence of UniProt P02751 (P02751 32-2477): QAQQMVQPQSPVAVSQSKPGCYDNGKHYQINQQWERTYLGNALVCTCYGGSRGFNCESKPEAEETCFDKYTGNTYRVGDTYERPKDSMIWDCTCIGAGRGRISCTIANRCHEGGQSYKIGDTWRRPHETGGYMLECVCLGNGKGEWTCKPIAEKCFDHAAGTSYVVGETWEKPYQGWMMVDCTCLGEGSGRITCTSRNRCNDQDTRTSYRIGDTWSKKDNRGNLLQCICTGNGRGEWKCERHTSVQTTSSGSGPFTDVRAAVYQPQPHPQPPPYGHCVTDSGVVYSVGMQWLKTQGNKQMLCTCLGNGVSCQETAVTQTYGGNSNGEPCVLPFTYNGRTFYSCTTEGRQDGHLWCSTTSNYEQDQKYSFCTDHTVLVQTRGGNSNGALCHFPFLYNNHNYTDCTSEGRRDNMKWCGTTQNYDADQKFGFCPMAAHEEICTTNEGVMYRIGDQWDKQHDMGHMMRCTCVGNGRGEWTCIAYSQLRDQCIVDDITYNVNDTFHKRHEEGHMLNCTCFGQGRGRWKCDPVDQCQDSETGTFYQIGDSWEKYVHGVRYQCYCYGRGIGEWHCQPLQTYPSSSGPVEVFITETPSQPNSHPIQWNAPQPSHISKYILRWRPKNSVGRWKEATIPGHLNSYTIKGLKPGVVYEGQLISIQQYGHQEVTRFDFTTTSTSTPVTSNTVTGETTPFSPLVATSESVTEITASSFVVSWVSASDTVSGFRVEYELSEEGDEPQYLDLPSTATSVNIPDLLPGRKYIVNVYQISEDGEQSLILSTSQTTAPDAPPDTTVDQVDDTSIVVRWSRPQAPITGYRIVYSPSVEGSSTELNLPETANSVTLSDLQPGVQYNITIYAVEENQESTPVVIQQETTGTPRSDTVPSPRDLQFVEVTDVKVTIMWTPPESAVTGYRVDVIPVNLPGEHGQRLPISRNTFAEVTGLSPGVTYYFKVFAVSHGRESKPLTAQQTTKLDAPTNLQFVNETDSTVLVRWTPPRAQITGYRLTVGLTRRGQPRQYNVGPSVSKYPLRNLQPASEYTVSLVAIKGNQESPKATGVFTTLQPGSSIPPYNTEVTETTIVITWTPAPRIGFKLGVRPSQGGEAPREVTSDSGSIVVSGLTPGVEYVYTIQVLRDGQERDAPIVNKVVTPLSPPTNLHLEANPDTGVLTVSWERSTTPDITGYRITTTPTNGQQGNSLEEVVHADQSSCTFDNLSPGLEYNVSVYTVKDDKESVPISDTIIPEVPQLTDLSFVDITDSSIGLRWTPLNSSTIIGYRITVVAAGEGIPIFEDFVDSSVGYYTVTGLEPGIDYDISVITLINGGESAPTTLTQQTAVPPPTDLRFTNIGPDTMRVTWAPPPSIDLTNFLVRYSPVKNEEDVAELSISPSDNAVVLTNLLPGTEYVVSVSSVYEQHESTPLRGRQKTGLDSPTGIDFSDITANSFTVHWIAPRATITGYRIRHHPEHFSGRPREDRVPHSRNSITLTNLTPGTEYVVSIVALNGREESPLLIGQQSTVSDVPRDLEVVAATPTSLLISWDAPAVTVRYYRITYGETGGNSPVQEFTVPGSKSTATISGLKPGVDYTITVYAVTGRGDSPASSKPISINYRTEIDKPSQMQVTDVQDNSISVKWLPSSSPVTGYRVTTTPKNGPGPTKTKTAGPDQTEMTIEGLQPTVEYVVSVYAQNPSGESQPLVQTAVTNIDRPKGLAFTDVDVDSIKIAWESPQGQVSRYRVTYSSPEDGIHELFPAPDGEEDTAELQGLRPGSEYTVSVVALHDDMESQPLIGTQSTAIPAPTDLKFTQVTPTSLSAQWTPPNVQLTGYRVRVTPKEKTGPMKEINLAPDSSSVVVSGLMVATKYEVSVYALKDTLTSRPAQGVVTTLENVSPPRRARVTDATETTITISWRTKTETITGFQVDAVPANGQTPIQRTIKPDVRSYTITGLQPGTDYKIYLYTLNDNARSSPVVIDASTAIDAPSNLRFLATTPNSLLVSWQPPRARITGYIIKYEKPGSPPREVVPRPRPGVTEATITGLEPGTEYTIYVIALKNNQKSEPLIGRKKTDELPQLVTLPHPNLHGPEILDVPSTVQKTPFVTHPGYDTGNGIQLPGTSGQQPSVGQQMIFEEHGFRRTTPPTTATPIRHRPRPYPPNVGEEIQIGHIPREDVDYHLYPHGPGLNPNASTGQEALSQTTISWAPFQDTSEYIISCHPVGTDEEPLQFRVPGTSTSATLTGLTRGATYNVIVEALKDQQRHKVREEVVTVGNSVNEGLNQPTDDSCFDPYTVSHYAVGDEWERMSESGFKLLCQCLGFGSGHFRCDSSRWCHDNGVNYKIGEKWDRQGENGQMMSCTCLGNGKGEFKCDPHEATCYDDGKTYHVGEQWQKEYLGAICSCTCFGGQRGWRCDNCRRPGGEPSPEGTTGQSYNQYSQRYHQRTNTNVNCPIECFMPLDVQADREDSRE

“APTEDB-conjugated PEG2000-DSPE (EDB-FN-specific aptamer-like peptide on the surface of a micellar nano-DDS) (designed binder)” yielded a cellular uptake, fluorescence intensity normalised to DAPI (U87MG cells, 1.0 wt% APTEDB-DSPE) of 166 A.U; a cellular uptake, fluorescence intensity normalised to DAPI (U87MG cells, 2.5 wt% APTEDB-DSPE) of 93.2 A.U; a cellular uptake, fluorescence intensity normalised to DAPI (U87MG cells, 5.0 wt% APTEDB-DSPE) of 56.7 A.U; a cellular uptake, fluorescence intensity normalised to DAPI (U251MG cells, 1.0 wt% APTEDB-DSPE) of 76.4 A.U. Moreover, the cellular uptake, fluorescence intensity normalised to DAPI (U251MG cells, 2.5 wt% APTEDB-DSPE) came out at 129 A.U and the cellular uptake, fluorescence intensity normalised to DAPI (U251MG cells, 5.0 wt% APTEDB-DSPE) was found to be 53.4 A.U.

Values taken from article PMC7738868.
